Where a chain is given by its changes, count along the chain named.

Test [1] concerns the target T1, PDL1 on MDA MB-231 human breast cancer cells (human, UniProt Q9NZQ7 19-290).
T1 construct: whole, on cells; also called 表达PD-L1的肿瘤细胞
Description: flow cytometry on MDA MB-231 cells, anti-human IgG Fc secondary antibody. In general terms: A flow cytometer gives signals particle by particle.

Test [2] concerns the target PDL1 on PDL1 aAPC/CHOK1 cells (UniProt Q9NZQ7 19-290, limits assumed). Description: cell-based or functional assay.
The target of test [3] is T2, 人PD-L1 (recombinant protein of the phage ELISA) (human, UniProt Q9NZQ7 19-239, limits assumed).
T2 construct: also called CD274; B7同源物1
Description: competitive phage ELISA, ratio to parental clone 12A4. On the technique in general: ELISA stands for enzyme-linked immunosorbent assay.

Test [4] concerns the target T2, 人PD-L1 (recombinant protein of the …). Description: competitive phage ELISA, Fab on phage, soluble PD-L1 against coated PD-L1.

B1: 抗PDL1单克隆抗体12A4bad (antibody, V domains shown)
VH: QVQLVQSGAEVKKPGSSVKVSCKTSGDTFSTYAISWVRQAPGQGLEWMGGIIPLFGKAHYAQKFQGRVTITADESTSTAYMELSSLRSEDTAVYFCARKFHFVRGSPFGMDVWGQGTTVTVSS
VL: EIVLTQSPATLSLSPGERATLSCRASQSVSSYLAWYQQKPGQAPRLLIYDASNRAPGIPARFSGSGSGTDFTLTISSLEPEDFAVYYCQQRSNWPTFGQGTKVEIK
In test [1], B1 came in with a Kd of 0.0778 nM. Moreover, in test [2], the “EC50 of luminescence in the PDL1/PD1 blockade bioassay” value turned out to be 0.344 nM.

B2: 12A4bd (Fab displayed on phage) (Fab, V domains shown)
VH: B1 VH
VL: not shown
Consider B2, for which the 相对于12A4亲本克隆的改善 in test [3] was found to be 6.3 fold. Further, the Kd in test [4] is 1.8 nM.

B3: 12A4bad (Fab displayed on phage) (Fab, V domains shown)
VH: B1 VH
VL: B1 VL
As to B3, in test [3], the 相对于12A4亲本克隆的改善 was 7.5 fold. Moreover, the Kd in test [4] was determined as 1.5 nM.

B4: 12A4a (Fab displayed on phage) (Fab, V domains shown)
VH: B1 VH with L54I, R104S
VL: B1 VL
For B4, the 相对于12A4亲本克隆的改善 in test [3] came to 1.3 fold. In test [4], the equilibrium dissociation constant (Kd) came out at 8.3 nM.

What is called Kd is the free concentration of one partner at which half of the binding sites on the other are occupied at equilibrium, for simple one-to-one binding.

Source of the values: patent CN118076384A (SPARKS BIOSCIENCE INC, dated 2024).
